Here are results for five substances from PMC3005221.

For experiment [1], the target named is GST (Schistosoma japonicum) [GST: P08515]. Conditions: cited from earlier work.
The next experiment concerns the target FITC-β-Ala-β-Ala-LQDGF. Briefly: fluorescence polarisation.
The next experiment concerns the target FITC-β-Ala-β-Ala-IAKGG. Briefly: fluorescence polarisation. In general terms: In fluorescence polarisation assays a small probe gives low polarisation when free and higher when bound to something large.
The next experiment has as its target FITC-β-Ala-β-Ala-FDGFM. Briefly: fluorescence polarisation.
In experiment [2] the target is FITC-β-Ala-β-Ala-YGFGG (human). Briefly: fluorescence polarisation.
The target in experiment [3] is FITC-β-Ala-β-Ala-ALRGG (human). Put plainly: fluorescence polarisation.
Experiment [4] addresses FITC-β-Ala-β-Ala-RARGG (human). Put plainly: fluorescence polarisation.
Experiment [5] addresses FITC-β-Ala-β-Ala-STLGG (human). Put plainly: fluorescence polarisation.
Experiment [6] deals with FITC-β-Ala-β-Ala-RGMGG (human). Put plainly: fluorescence polarisation.
The next experiment concerns the target FITC-β-Ala-β-Ala-NALGG. Put plainly: fluorescence polarisation.
The target of experiment [7] is FITC-β-Ala-β-Ala-RLRGG (human). Briefly: fluorescence polarisation.
In another experiment the target is ubiquitin (Homo sapiens) (UniProt P0CG48). Conditions: cited from earlier work.
Experiment [8] concerns the target ubiquitin C-terminal five-residue peptide (Homo sapiens). To be noted: cited from earlier work.

Sequence of HDAC6 BUZ (Q9UBN7 1111-1209): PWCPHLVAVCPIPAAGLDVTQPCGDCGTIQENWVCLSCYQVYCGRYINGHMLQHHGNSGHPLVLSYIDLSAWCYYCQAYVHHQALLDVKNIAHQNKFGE
Sequence of Ubp-M BUZ (Q9Y5T5 22-142): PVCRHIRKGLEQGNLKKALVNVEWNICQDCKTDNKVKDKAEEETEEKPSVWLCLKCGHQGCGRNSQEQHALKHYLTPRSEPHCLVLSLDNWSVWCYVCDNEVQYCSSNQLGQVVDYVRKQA

Usually Kd stands for the concentration at which binding is half-saturated. As for GST (from UniProt P08515), the Kd in experiment [1] was 0.33 µM.
“GST-Abl2 SH2 domain fusion protein (from UniProt P42684 173-263) (domain or fragment)” yielded a Kd in the experiment with FITC-β-Ala-β-Ala-LQDGF of 4.6 µM.
For “GST-HDAC6 BUZ (from UniProt Q9UBN7 1059-1215) (domain or fragment)”, the equilibrium dissociation constant (Kd) came to 8.8 µM with FITC-β-Ala-β-Ala-IAKGG; 10.8 µM with FITC-β-Ala-β-Ala-FDGFM; 6.2 µM in experiment [2]; 2.5 µM in experiment [3]; 4 µM with FITC-β-Ala-β-Ala-LQDGF; 0.47 µM in experiment [4]. The dissociation constant Kd is 3.7 µM in [5], 1.3 µM in experiment [6], 0.79 µM in the experiment with FITC-β-Ala-β-Ala-NALGG and 0.34 µM in experiment [7].
As for HDAC6 BUZ (from UniProt Q9UBN7), the Kd with ubiquitin (Homo sapiens) is 0.06 µM.
Regarding Ubp-M BUZ (from UniProt Q9Y5T5), the Kd in experiment [8] was 15.9 µM.
